This note sets out measurements from publication PMC6006169, “Conformational switching in the coiled-coil domains of a proteasomal ATPase regulates substrate processing” (Nature Communications, 2018).

Data set [1] concerns the molecule itself. Description: cross-linking; disulfide cross-linking of engineered cysteines; 1 mM tetrathionate, 1-2 h, room temperature, 50 mM Tris pH 7.5 + 5% glycerol, no nucleotide, PAN at or below 0.25 mg/ml; desalted on G50, non-reducing SDS-PAGE, Coomassie, densitometry of monomers vs. dimers.
Data set [2] deals with the molecule itself. Description: native gel or EMSA; native-PAGE of oxidized PAN cysteine mutants. (Mobility shift assays separate free from complexed probe on a gel.)

B1: PAN 80C (enzyme, Methanococcus jannaschii, UniProt Q58576 1-430, looked up)
chain: MVFEEFISTELKKEKKAFTEEFKEEKEINDNSNLKNDLLKEELQEKARIAELESRILKLELEKKELERENLQLMKENEICRRELDRMRVPPLIVGTVVDKVGERKVVVKSSTGPSFLVNVSHFVNPDDLAPGKRVCLNQQTLTVVDVLPENKDYRAKAMEVDERPNVRYEDIGGLEKQMQEIREVVELPLKHPELFEKVGIEPPKGILLYGPPGTGKTLLAKAVATETNATFIRVVGSELVKKFIGEGASLVKDIFKLAKEKAPSIIFIDEIDAIAAKRTDALTGGDREVQRTLMQLLAEMDGFDARGDVKIIGATNRPDILDPAILRPGRFDRIIEVPAPDEKGRLEILKIHTRKMNLAEDVNLEEIAKMTEGCVGAELKAICTEAGMNAIRELRDYVTMDDFRKAVEKIMEKKKVKVKEPAHLDVLYR
notes: Expressed from pRSETA; no tag named; source: E. coli BL21-DE3-RIL, purified (heat precipitation, anion exchange, size exclusion)
B1: the binding result in data set [1] was “binds”.

B2: PAN 80+73C (enzyme, Methanococcus jannaschii, UniProt Q58576 1-430, looked up)
chain: MVFEEFISTELKKEKKAFTEEFKEEKEINDNSNLKNDLLKEELQEKARIAELESRILKLELEKKELERENLQCMKENEICRRELDRMRVPPLIVGTVVDKVGERKVVVKSSTGPSFLVNVSHFVNPDDLAPGKRVCLNQQTLTVVDVLPENKDYRAKAMEVDERPNVRYEDIGGLEKQMQEIREVVELPLKHPELFEKVGIEPPKGILLYGPPGTGKTLLAKAVATETNATFIRVVGSELVKKFIGEGASLVKDIFKLAKEKAPSIIFIDEIDAIAAKRTDALTGGDREVQRTLMQLLAEMDGFDARGDVKIIGATNRPDILDPAILRPGRFDRIIEVPAPDEKGRLEILKIHTRKMNLAEDVNLEEIAKMTEGCVGAELKAICTEAGMNAIRELRDYVTMDDFRKAVEKIMEKKKVKVKEPAHLDVLYR
notes: as for B1
Take B2: in data set [1], the binding result was “binds”.

B3: PAN 66C (enzyme, Methanococcus jannaschii, UniProt Q58576 1-430, looked up)
chain: MVFEEFISTELKKEKKAFTEEFKEEKEINDNSNLKNDLLKEELQEKARIAELESRILKLELEKKECERENLQLMKENEILRRELDRMRVPPLIVGTVVDKVGERKVVVKSSTGPSFLVNVSHFVNPDDLAPGKRVCLNQQTLTVVDVLPENKDYRAKAMEVDERPNVRYEDIGGLEKQMQEIREVVELPLKHPELFEKVGIEPPKGILLYGPPGTGKTLLAKAVATETNATFIRVVGSELVKKFIGEGASLVKDIFKLAKEKAPSIIFIDEIDAIAAKRTDALTGGDREVQRTLMQLLAEMDGFDARGDVKIIGATNRPDILDPAILRPGRFDRIIEVPAPDEKGRLEILKIHTRKMNLAEDVNLEEIAKMTEGCVGAELKAICTEAGMNAIRELRDYVTMDDFRKAVEKIMEKKKVKVKEPAHLDVLYR
notes: as for B1
On to B3, for which the binding result in data set [1] is on record as “binds”.

B4: PAN 87+73+59C triple mutant (enzyme, Methanococcus jannaschii, UniProt Q58576 1-430, looked up)
chain: MVFEEFISTELKKEKKAFTEEFKEEKEINDNSNLKNDLLKEELQEKARIAELESRILKCELEKKELERENLQCMKENEILRRELDRCRVPPLIVGTVVDKVGERKVVVKSSTGPSFLVNVSHFVNPDDLAPGKRVCLNQQTLTVVDVLPENKDYRAKAMEVDERPNVRYEDIGGLEKQMQEIREVVELPLKHPELFEKVGIEPPKGILLYGPPGTGKTLLAKAVATETNATFIRVVGSELVKKFIGEGASLVKDIFKLAKEKAPSIIFIDEIDAIAAKRTDALTGGDREVQRTLMQLLAEMDGFDARGDVKIIGATNRPDILDPAILRPGRFDRIIEVPAPDEKGRLEILKIHTRKMNLAEDVNLEEIAKMTEGCVGAELKAICTEAGMNAIRELRDYVTMDDFRKAVEKIMEKKKVKVKEPAHLDVLYR
notes: Expressed from pRSETA; no tag named; also called PAN 87C+73C+59C; source: E. coli BL21-DE3-RIL, purified (heat precipitation, anion exchange, size exclusion)
With B4, in data set [1], the percent cross-linked stood at 74%.

B5: PAN 73+66C (enzyme, Methanococcus jannaschii, UniProt Q58576 1-430, looked up)
chain: MVFEEFISTELKKEKKAFTEEFKEEKEINDNSNLKNDLLKEELQEKARIAELESRILKLELEKKECERENLQCMKENEILRRELDRMRVPPLIVGTVVDKVGERKVVVKSSTGPSFLVNVSHFVNPDDLAPGKRVCLNQQTLTVVDVLPENKDYRAKAMEVDERPNVRYEDIGGLEKQMQEIREVVELPLKHPELFEKVGIEPPKGILLYGPPGTGKTLLAKAVATETNATFIRVVGSELVKKFIGEGASLVKDIFKLAKEKAPSIIFIDEIDAIAAKRTDALTGGDREVQRTLMQLLAEMDGFDARGDVKIIGATNRPDILDPAILRPGRFDRIIEVPAPDEKGRLEILKIHTRKMNLAEDVNLEEIAKMTEGCVGAELKAICTEAGMNAIRELRDYVTMDDFRKAVEKIMEKKKVKVKEPAHLDVLYR
notes: as for B1
On to B5, for which the binding result in data set [1] is listed as “binds”.

B6: PAN 80+66C (enzyme, Methanococcus jannaschii, UniProt Q58576 1-430, looked up)
chain: MVFEEFISTELKKEKKAFTEEFKEEKEINDNSNLKNDLLKEELQEKARIAELESRILKLELEKKECERENLQLMKENEICRRELDRMRVPPLIVGTVVDKVGERKVVVKSSTGPSFLVNVSHFVNPDDLAPGKRVCLNQQTLTVVDVLPENKDYRAKAMEVDERPNVRYEDIGGLEKQMQEIREVVELPLKHPELFEKVGIEPPKGILLYGPPGTGKTLLAKAVATETNATFIRVVGSELVKKFIGEGASLVKDIFKLAKEKAPSIIFIDEIDAIAAKRTDALTGGDREVQRTLMQLLAEMDGFDARGDVKIIGATNRPDILDPAILRPGRFDRIIEVPAPDEKGRLEILKIHTRKMNLAEDVNLEEIAKMTEGCVGAELKAICTEAGMNAIRELRDYVTMDDFRKAVEKIMEKKKVKVKEPAHLDVLYR
notes: as for B1
B6: the percent cross-linked in data set [1] stood at 72%. In data set [2], the stoichiometry N (usually the number of molecules, sites or subunits per partner or assembly) came out at 6.

B7: PAN 87+73C (enzyme, Methanococcus jannaschii, UniProt Q58576 1-430, looked up)
chain: MVFEEFISTELKKEKKAFTEEFKEEKEINDNSNLKNDLLKEELQEKARIAELESRILKLELEKKELERENLQCMKENEILRRELDRCRVPPLIVGTVVDKVGERKVVVKSSTGPSFLVNVSHFVNPDDLAPGKRVCLNQQTLTVVDVLPENKDYRAKAMEVDERPNVRYEDIGGLEKQMQEIREVVELPLKHPELFEKVGIEPPKGILLYGPPGTGKTLLAKAVATETNATFIRVVGSELVKKFIGEGASLVKDIFKLAKEKAPSIIFIDEIDAIAAKRTDALTGGDREVQRTLMQLLAEMDGFDARGDVKIIGATNRPDILDPAILRPGRFDRIIEVPAPDEKGRLEILKIHTRKMNLAEDVNLEEIAKMTEGCVGAELKAICTEAGMNAIRELRDYVTMDDFRKAVEKIMEKKKVKVKEPAHLDVLYR
notes: Expressed from pRSETA; no tag named; also called PAN 87C+73C; source: E. coli BL21-DE3-RIL, purified (heat precipitation, anion exchange, size exclusion)
In the case of B7, in data set [2], the “stoichiometry N” value came to 6.

B8: PAN 87+80C (enzyme, Methanococcus jannaschii, UniProt Q58576 1-430, looked up)
chain: MVFEEFISTELKKEKKAFTEEFKEEKEINDNSNLKNDLLKEELQEKARIAELESRILKLELEKKELERENLQLMKENEICRRELDRCRVPPLIVGTVVDKVGERKVVVKSSTGPSFLVNVSHFVNPDDLAPGKRVCLNQQTLTVVDVLPENKDYRAKAMEVDERPNVRYEDIGGLEKQMQEIREVVELPLKHPELFEKVGIEPPKGILLYGPPGTGKTLLAKAVATETNATFIRVVGSELVKKFIGEGASLVKDIFKLAKEKAPSIIFIDEIDAIAAKRTDALTGGDREVQRTLMQLLAEMDGFDARGDVKIIGATNRPDILDPAILRPGRFDRIIEVPAPDEKGRLEILKIHTRKMNLAEDVNLEEIAKMTEGCVGAELKAICTEAGMNAIRELRDYVTMDDFRKAVEKIMEKKKVKVKEPAHLDVLYR
notes: as for B1
With B8, the binding result in data set [1] is “binds”.

B9: PAN-M87C (proteasome-activating nucleotidase, M87C mutant) (enzyme, Methanococcus jannaschii, UniProt Q58576 1-430, looked up)
chain: MVFEEFISTELKKEKKAFTEEFKEEKEINDNSNLKNDLLKEELQEKARIAELESRILKLELEKKELERENLQLMKENEILRRELDRCRVPPLIVGTVVDKVGERKVVVKSSTGPSFLVNVSHFVNPDDLAPGKRVCLNQQTLTVVDVLPENKDYRAKAMEVDERPNVRYEDIGGLEKQMQEIREVVELPLKHPELFEKVGIEPPKGILLYGPPGTGKTLLAKAVATETNATFIRVVGSELVKKFIGEGASLVKDIFKLAKEKAPSIIFIDEIDAIAAKRTDALTGGDREVQRTLMQLLAEMDGFDARGDVKIIGATNRPDILDPAILRPGRFDRIIEVPAPDEKGRLEILKIHTRKMNLAEDVNLEEIAKMTEGCVGAELKAICTEAGMNAIRELRDYVTMDDFRKAVEKIMEKKKVKVKEPAHLDVLYR
notes: Expressed from pRSETA; The fraction F1 after partial trypsin proteolysis is called full-length or near full length; also called PAN-87C; M87C PAN; source: E. coli BL21-DE3-RIL, purified (heat precipitation, anion exchange, size exclusion)
B9: the “stoichiometry N” value in data set [2] was 6.

B10: PAN 87+59C (enzyme, Methanococcus jannaschii, UniProt Q58576 1-430, looked up)
chain: MVFEEFISTELKKEKKAFTEEFKEEKEINDNSNLKNDLLKEELQEKARIAELESRILKCELEKKELERENLQLMKENEILRRELDRCRVPPLIVGTVVDKVGERKVVVKSSTGPSFLVNVSHFVNPDDLAPGKRVCLNQQTLTVVDVLPENKDYRAKAMEVDERPNVRYEDIGGLEKQMQEIREVVELPLKHPELFEKVGIEPPKGILLYGPPGTGKTLLAKAVATETNATFIRVVGSELVKKFIGEGASLVKDIFKLAKEKAPSIIFIDEIDAIAAKRTDALTGGDREVQRTLMQLLAEMDGFDARGDVKIIGATNRPDILDPAILRPGRFDRIIEVPAPDEKGRLEILKIHTRKMNLAEDVNLEEIAKMTEGCVGAELKAICTEAGMNAIRELRDYVTMDDFRKAVEKIMEKKKVKVKEPAHLDVLYR
notes: as for B1
As for B10, in data set [1], the binding result is given as “binds”.

B11: PAN 80+59C (enzyme, Methanococcus jannaschii, UniProt Q58576 1-430, looked up)
chain: MVFEEFISTELKKEKKAFTEEFKEEKEINDNSNLKNDLLKEELQEKARIAELESRILKCELEKKELERENLQLMKENEICRRELDRMRVPPLIVGTVVDKVGERKVVVKSSTGPSFLVNVSHFVNPDDLAPGKRVCLNQQTLTVVDVLPENKDYRAKAMEVDERPNVRYEDIGGLEKQMQEIREVVELPLKHPELFEKVGIEPPKGILLYGPPGTGKTLLAKAVATETNATFIRVVGSELVKKFIGEGASLVKDIFKLAKEKAPSIIFIDEIDAIAAKRTDALTGGDREVQRTLMQLLAEMDGFDARGDVKIIGATNRPDILDPAILRPGRFDRIIEVPAPDEKGRLEILKIHTRKMNLAEDVNLEEIAKMTEGCVGAELKAICTEAGMNAIRELRDYVTMDDFRKAVEKIMEKKKVKVKEPAHLDVLYR
notes: as for B1
Regarding B11, the binding result in data set [1] was “binds”.

B12: PAN 73C (enzyme, Methanococcus jannaschii, UniProt Q58576 1-430, looked up)
chain: MVFEEFISTELKKEKKAFTEEFKEEKEINDNSNLKNDLLKEELQEKARIAELESRILKLELEKKELERENLQCMKENEILRRELDRMRVPPLIVGTVVDKVGERKVVVKSSTGPSFLVNVSHFVNPDDLAPGKRVCLNQQTLTVVDVLPENKDYRAKAMEVDERPNVRYEDIGGLEKQMQEIREVVELPLKHPELFEKVGIEPPKGILLYGPPGTGKTLLAKAVATETNATFIRVVGSELVKKFIGEGASLVKDIFKLAKEKAPSIIFIDEIDAIAAKRTDALTGGDREVQRTLMQLLAEMDGFDARGDVKIIGATNRPDILDPAILRPGRFDRIIEVPAPDEKGRLEILKIHTRKMNLAEDVNLEEIAKMTEGCVGAELKAICTEAGMNAIRELRDYVTMDDFRKAVEKIMEKKKVKVKEPAHLDVLYR
notes: as for B1
Turning to B12, in data set [1], the binding result was “binds”.
